The target of the assay is human DNA polymerase theta (Polθ), polymerase domain, wild type (human). The assay is described as follows: SEC. (In general: Size exclusion chromatography separates by hydrodynamic size, large species first.)

For orientation: stoichiometry N means a count of units in the complex or per binding partner.

On to “human DNA polymerase theta (Polθ), polymerase domain, wild type (domain or fragment)”, for which the stoichiometry N was 2.
